Here are results for one molecule from article PMC6499106, “The CXCR4-LASP1-eIF4F Axis Promotes Translation of Oncogenic Proteins in Triple-Negative Breast Cancer Cells” (Frontiers in Oncology, 2019).

The target in this assay is T1, eIF4E, the cap binding subunit of eIF4F, endogenous in 231S cells (human (endogenous in 231S, MDA-MB-231), UniProt P06730 1-217).
T1 construct: source: endogenous, 231S cells, in lysate, held on m7-GTP agarose beads
As to the kind of experiment: pull-down; m7-GTP agarose beads with 1 mg 231S lysate in Co-IP buffer overnight at 4°C; cells stimulated with 20 nM CXCL12 over time, with or without 100 nM AMD3465; eIF4E as precipitate, LASP1 or eIF4G as co-precipitate by Western blot. The settings on record: partners not purified.

T1 sequence (P06730 whole entry): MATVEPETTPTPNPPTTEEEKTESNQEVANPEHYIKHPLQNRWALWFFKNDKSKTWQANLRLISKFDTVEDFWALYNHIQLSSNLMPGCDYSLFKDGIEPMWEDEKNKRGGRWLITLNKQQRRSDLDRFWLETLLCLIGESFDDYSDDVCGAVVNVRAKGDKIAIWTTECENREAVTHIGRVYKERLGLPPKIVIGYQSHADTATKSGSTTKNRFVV

B1: LIM and SH3 Protein 1 (LASP1), endogenous in 231S cells (natural protein, human (endogenous in 231S, MDA-MB-231), UniProt Q14847 1-261, looked up)
chain: MNPNCARCGKIVYPTEKVNCLDKFWHKACFHCETCKMTLNMKNYKGYEKKPYCNAHYPKQSFTMVADTPENLRLKQQSELQSQVRYKEEFEKNKGKGFSVVADTPELQRIKKTQDQISNIKYHEEFEKSRMGPSGGEGMEPERRDSQDGSSYRRPLEQQQPHHIPTSAPVYQQPQQQPVAQSYGGYKEPAAPVSIQRSAPGGGGKRYRAVYDYSAADEDEVSFQDGDTIVNVQQIDDGWMYGTVERTGDTGMLPANYVEAI
notes: LIM and SH3 protein 1 (LASP1), endogenous in human 231S breast cancer cells; source: endogenous, 231S (MDA-MB-231 sorted for high CXCR4) cells, in lysate or in situ
Turning to B1, the “fold change of co-precipitate, CXCL12 for 5 min against 0 min” value was 2.2 fold.
